# In patent US20220259593A1, “CONTROL OF MAMMALIAN GENE DOSAGE USING CRISPR” (The Regents of the University of California, priority 2019, published 2022):
# B1: cr850 (nucleic acid)
# guide: GTTTAAGAGCTAAGCTGGAAACAGCATAGCAAGTTTAAATAAGGCTAGTCCGTTATCAACTTGAAAAAGTGGCACCGGGGCGGTGCT
# modifications: listed as DNA, chemistry not fully specified
# B2: cr972 (nucleic acid)
# guide: GTTTAAGAGCTAAGCTGGAAACAGCATAGCAAGTTTAAATAAGTGTACTACGTTATCAACCTGAAAAGGTGGCACCGAGTCGGTGCT
# modifications: listed as DNA, chemistry not fully specified
# B3: cr210 (nucleic acid)
# guide: GTTTAAGAGCTAAGCTGGAAACAGCATAGCAAGTTTAAATAAGGCTAGTCCGTTATCTACTTGACAAAGTGGCACCGAGTCGGTGCT
# modifications: listed as DNA, chemistry not fully specified
# B4: cr586 (nucleic acid)
# guide: GTTTAAGAGCTAAGCTGGAAACAGCATAGCAAGCTTAAATAAGGCTAGTCCGTTATCAACTTGAAAAAGTGGCCCCGAGTCGGGGCT
# modifications: listed as DNA, chemistry not fully specified
# B5: cr982 (nucleic acid)
# guide: GTTTAAGAGCTAAGCTGGAAACAGCATAGCAAGCTTAAATAAGGCTAGTCCGTTATCAACTTGAAAAAGTGGCAACGAGTCGTTGCT
# modifications: listed as DNA, chemistry not fully specified
# B6: cr992 (nucleic acid)
# guide: GTTTAAGAGCTAAGCTGGAAACAGCATTGCAAGTTTAAATAAGGCTAGTCCATTATCAACTTGAAAAAGTGGCACCGAGTCGGTGCT
# modifications: listed as DNA, chemistry not fully specified
# B7: cr246 (nucleic acid)
# guide: GTTTAAGAGCTAAGCTGGAAACAGCATAGCAAGTTTAAAAAAGGCTGGTCCGTTATCAACTTGAAAAAGTGGCACCGAGTCGGTGCT
# modifications: listed as DNA, chemistry not fully specified
# B8: cr417 (nucleic acid)
# guide: GTTTAAGAGCTAAGCTGGAAACAGCATAGCAATTTTAAATAAGGCTAGTCCGTTATCAACTTGAAGAAGTGGCACCGAGTCGGTGCT
# modifications: listed as DNA, chemistry not fully specified
# B9: cr322 (nucleic acid)
# guide: GTTTAAGAGCTAAGCTGGAAACAGCATAGCAAGTTTAAATAAGGCTAGCCCGTTATGAACTTGAAAAAGTGGCACCGAGTCGGTGCT
# modifications: listed as DNA, chemistry not fully specified
# B10: cr004 (nucleic acid)
# guide: GATTAAGAGCTAAGCTGGAAACAGCATAGCAAGTTTAAATAAGGCTAGTCCGTTATCAACTTGAAAAAGTGGCACCGAGTCGGTGCT
# modifications: listed as DNA, chemistry not fully specified
# B11: cr209 (nucleic acid)
# guide: GTTTAAGAGCTAAGCTGGAAACAGCATAGCAAGTTTAAATCAGGCTAGTCCGTTATCAACTTGAAAAAGTGGCACCGAGTCGGTGCT
# modifications: listed as DNA, chemistry not fully specified
# B12: cr154 (nucleic acid)
# guide: GTTTAAGAGCTAAGCTGGAAACAGCATCGCAAGTTTAAATAAGGCTAGTCCATTATCAACTTGAAAAAGTGGCACCGAGTCGGTGCT
# modifications: listed as DNA, chemistry not fully specified
# B13: cr907 (nucleic acid)
# guide: GTTTAAGAGCTAAGCTGGAAACAGCATAGCAAGTTTAAATAAGGCTAGTCCATTATCAACTTGTAAAAGTGGCACCGATTCGGTGCT
# modifications: listed as DNA, chemistry not fully specified
# B14: cr237 (nucleic acid)
# guide: GTTTAAGAGCTAAGCTGGAAACAGCATAGCAAGTTTAAATAAGGATATTCCGTTATCAACGTGAAAACGTGGCACCCAGTGGGTGCT
# modifications: listed as DNA, chemistry not fully specified
# B15: cr027 (nucleic acid)
# guide: GTCTAAAAGCTAAGCTGGAAACAGCATAGCAAGTTTAAATAAGGCTAGTCCGTTATCAACTTGAAAAAGTGGCACCGAGTCGGTGCT
# modifications: listed as DNA, chemistry not fully specified
# B16: cr055 (nucleic acid)
# guide: GGTTAAGCGCTAAGCTGGAAACAGCATAGCAAGTTTAAATAAGGCTAGTCCGTTATCAACTTGAAAAAGTGGCACCGAGTCGGTGCT
# modifications: listed as DNA, chemistry not fully specified
# B17: cr466 (nucleic acid)
# guide: GTTTAAGAGCTAAGCTGGAAACAGCATAGCAAGTTTAAAAAAGGCTAGTCCGTTATCAACTTGAAAAAGTGGCACCGAGTCGGTGCT
# modifications: listed as DNA, chemistry not fully specified
# B18: cr331 (nucleic acid)
# guide: GTTTAAGAGCTAAGCTGGAAACAGCATAGCAAGCTTAAATAAGGCTAGTCCGTTATCAACTTGAAAAAGTGGCATCGAGTCGATGCT
# modifications: listed as DNA, chemistry not fully specified
# B19: cr146 (nucleic acid)
# guide: GTTTAAGAGCTAAGCTGGAAACAGCATAGCAAGTTTAAATAAGGCTAGTCCGTTATCAACTTGAAAAAGTGGCACGCAGTGCGTGCT
# modifications: listed as DNA, chemistry not fully specified
# B20: cr108 (nucleic acid)
# guide: GTTTAAGAGCTAAGCTGGAAACAGCATAGCAAGTTTAAATAAAGCTAGTCTGTTATCAACTTGAGAAAGTGGCACCGAGTCGGTGCT
# modifications: listed as DNA, chemistry not fully specified
# B21: cr002 (nucleic acid)
# guide: CTTTAAGAGCTAAGCTGGAAACAGCATAGCAAGTTTAAATAAGGCTAGTCCGTTATCAACTTGAAAAAGTGGCACCGAGTCGGTGCT
# modifications: listed as DNA, chemistry not fully specified
# B22: cr591 (nucleic acid)
# guide: GTTTAAGAGCTAAGCTGGAAACAGCATAGCAAGTTTAAATAAGGCTAGTCCGTTGTCTACTTGAAAAAGTGGCACCGAGTCGGTGCT
# modifications: listed as DNA, chemistry not fully specified
# B23: cr468 (nucleic acid)
# guide: GTTTAAGAGCTAAGCTGGAAACAGCATAGCAAGATTAAATAAGGCTAGTCCGTTATCAACTTGAAAAAGTGGCACCGAGTCGGTGCT
# modifications: listed as DNA, chemistry not fully specified
# B24: cr125 (nucleic acid)
# guide: GTTTAAGAGCTAAGCTGGAAACAGCATAGCAATTTTAAATAAGGCTAGTCCGTTATCAACTTGATAAAGTGGCACCGAGTCGGTGCT
# modifications: listed as DNA, chemistry not fully specified
# B25: cr685 (nucleic acid)
# guide: GTTTAAGAGCTAAGCTGGAAACAGCATAGCAAGTTTAAATAAGGCTAGTCCGTTATCAGCTTGAAAAAGTGGCACCGAGTCGGTGCT
# modifications: listed as DNA, chemistry not fully specified
# B26: cr344 (nucleic acid)
# guide: GTTTAAGAGCTAAGCTGGAAACAGCATAGCAAGTTTAAATAAGGCTAGTCCATTATCAACTTGAATAAGTGGCACCGAGTCGGTGCT
# modifications: listed as DNA, chemistry not fully specified
# B27: cr532 (nucleic acid)
# guide: GTTTAAGAGCTAAGCTGGAAACAGCATAGCAAGTTTAAATAAGGCTAGTCCGTTATCAACGTGAAAACGTGACTCCGAGTCGGAGTT
# modifications: listed as DNA, chemistry not fully specified
# B28: cr709 (nucleic acid)
# guide: GTTTAAGAGCTAAGCTGGAAACAGCATAGCAAGTTTAAATAAGGCTAGTCCGTTATTAACTTGAAAAAGTTGCACCGAGTCGGTGCT
# modifications: listed as DNA, chemistry not fully specified
# B29: cr892 (nucleic acid)
# guide: GTTTAAGAGCTAAGCTGGAAACAGCATAGCAAGTTTAAATAAGGCTAGTCCGTTATCAACGTGAAAACGTGGCGACGAGTCGTCGCT
# modifications: listed as DNA, chemistry not fully specified
# B30: cr217 (nucleic acid)
# guide: GTTTAAGAGCTAAGCTGGAAACAGCATAGCAATTTTAAATAAGGCTAGTCCGTTATCAACTTGACAAAGTGGCACCGAGTCGGTGCT
# modifications: listed as DNA, chemistry not fully specified
# System: K562 CRISPRi cells
# Assay: Constant region variant library pooled growth screen, K562
# Type: cell-based, human
# Settings: sgRNA constant region variants
# Outline: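 Library of sgRNA constant-region variants, each paired with 36 targeting sequences (essential-gene and non-targeting), transduced in duplicate into K562 CRISPRi cells, puromycin-selected and grown 4–8 days at >2000× coverage. Activity per variant is its growth phenotype normalised to the same targeting sequence with unmodified constant region.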
# [1] = activity relative to the unmodified constant region cr995
# [2] = activity relative to the original, un-modified constant region cr995
Molecule,Mean relative activity [1],Mean relative activity [2]
B1,0.3225,–
B2,0.2767,–
B3,0.313,–
B4,0.2939,–
B5,0.2842,–
B6,0.2785,–
B7,0.2779,–
B8,0.2821,–
B9,0.3033,–
B10,0.3103,–
B11,0.2959,–
B12,0.2827,–
B13,0.2821,–
B14,0.2843,–
B15,0.2878,–
B16,0.3045,–
B17,0.3153,–
B18,0.2828,–
B19,0.3141,–
B20,0.3221,–
B21,0.3195,–
B22,0.2933,–
B23,0.32,–
B24,0.2852,–
B25,–,1.041
B26,0.2836,–
B27,–,1.093
B28,0.3211,–
B29,–,1.041
B30,0.2802,–
